Data set [1] deals with T1, Photobacterium phosphoreum strain JT-ISH-467 β-galactoside-α2,3-sialyltransferase N2C0 variant F318AE319A (ISH467-N2C0-F318AE319A); Phe318 and Glu319 of SEQ ID N (Photobacterium phosphoreum, UniProt A5LHX0, E342A/F341A).
T1 sequence (A5LHX0 with tags, fused parts or gaps F341A/E342A): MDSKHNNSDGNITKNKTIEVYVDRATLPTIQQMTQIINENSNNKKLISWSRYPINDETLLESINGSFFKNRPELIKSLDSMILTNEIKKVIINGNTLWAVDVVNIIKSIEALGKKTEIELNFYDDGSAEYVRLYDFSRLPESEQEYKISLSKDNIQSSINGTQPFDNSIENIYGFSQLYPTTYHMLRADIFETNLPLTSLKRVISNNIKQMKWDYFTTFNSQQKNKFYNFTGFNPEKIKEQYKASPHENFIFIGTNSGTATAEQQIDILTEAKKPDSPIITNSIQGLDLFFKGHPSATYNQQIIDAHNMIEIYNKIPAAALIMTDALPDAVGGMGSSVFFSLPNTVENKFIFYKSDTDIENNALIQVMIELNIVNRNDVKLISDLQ
In words: Sialyltransferase kinetics for lactose and CMP-sialic acid, F318A E319A variant enzyme. The conditions noted are these: not containing His×6-Tag. Format: biochemical. The procedure: The β-galactoside-α2,3-sialyltransferase activities of variant-type N2C0 proteins (four variants: F318A, E319A, F318AE319A, and S337A) each containing His×6-Tag purified in Example 1 (2) were measured. The sialyltransferase activity was measured by the method as described in J. Biochem., 120, 104-110, (1996) (hereby incorporated by reference in its entirety). […] The enzyme reaction was performed at 30° C. for 5 minutes. After the completion of the reaction, 1.97 mL of 5 mM phosphate buffer (pH 6.8) was added to the reaction solution, which was then applied to a Dowex 1×8 (PO4^3− form, 0.2×2 cm, manufactured by Bio-Rad Laboratories, Inc.) column. The reaction product contained in the eluate (0 to 2 mL) from this column, i.e., the radioactivity contained in sialyllactose was measured to calculate the enzyme activity. One enzyme unit (1 U) is defined as the amount of the enzyme required to release one micromole of sialic acid per minute.

The target of data set [2] is T2, Photobacterium phosphoreum strain JT-ISH-467 β-galactoside-α2,3-sialyltransferase N2C0 (ISH467-N2C0), wild type, SEQ ID NO: 2, not containing His×6-Tag (Photobacterium phosphoreum, UniProt A5LHX0).
T2 sequence (A5LHX0 with tags, fused parts or gaps): T1 sequence (A5LHX0 with tags, fused parts or gaps F341A/E342A) with A318F, A319E
Put plainly: Sialyltransferase kinetics for lactose and CMP-sialic acid, wild-type N2C0 enzyme. It counts as biochemical.

Substrate in data set [3]: OC[C@H]1O[C@@H](O[C@H]2[C@H](O)[C@@H](O)C(O)O[C@@H]2CO)[C@H](O)[C@@H](O)[C@H]1O
Put plainly: purified protein, by the assay type. The conditions noted are these: not containing His×6-Tag, 30.0 °C.

Substrate in data set [4]: CC(=O)N[C@H]1[C@H]([C@H](O)[C@H](O)CO)O[C@](OP(=O)(O)OC[C@H]2O[C@@H](n3ccc(N)nc3=O)[C@H](O)[C@@H]2O)(C(=O)O)C[C@@H]1O
In words: purified protein, by the assay type. The conditions noted are these: not containing His×6-Tag, 30.0 °C.

Substrate in data set [5]: OC[C@H]1O[C@@H](O[C@H]2[C@H](O)[C@@H](O)C(O)O[C@@H]2CO)[C@H](O)[C@@H](O)[C@H]1O
In words: purified protein, by the assay type. Format: biochemical, Photobacterium phosphoreum strain JT-ISH-467. The conditions noted are these: other: E319A variant enzyme, not containing His×6-Tag; 30.0 °C.

Substrate in data set [6]: CC(=O)N[C@H]1[C@H]([C@H](O)[C@H](O)CO)O[C@](OP(=O)(O)OC[C@H]2O[C@@H](n3ccc(N)nc3=O)[C@H](O)[C@@H]2O)(C(=O)O)C[C@@H]1O
In words: purified protein, by the assay type. Format: biochemical, Photobacterium phosphoreum strain JT-ISH-467. The following applies: other: E319A variant enzyme, not containing His×6-Tag; 30.0 °C.

[7] abbreviates: other: wild-type N2C0 enzyme, pH 6.8.
The mark [8] stands for this setting: other: F318A E319A variant enzyme.

Positions count from the first letter of the chain named. Numbers in names are those of the source.

The results in this text go back to US20130122566A1, “NOVEL ENZYME PROTEIN, PROCESS FOR PRODUCTION OF THE ENZYME PROTEIN THE SAME, AND GENE ENCODING THE ENZYME PROTEIN THE SAME” (JAPAN TOBACCO INC., priority 2010, published 2013).

By Vmax is commonly meant the top rate of the reaction or transport when substrate is in excess. By kcat is commonly meant the maximal rate divided by the concentration of active sites. As to `CC(=O)N[C@H]1[C@H]([C@H](O)[C@H](O)CO)O[C@](OP(=O)(O)OC[C@H]2O[C@@H](n3ccc(N)nc3=O)[C@H](O)[C@@H]2O)(C(=O)O)C[C@@H]1O` [CMP-sialic acid, cytidine monophosphate (CMP)-sialic acid], in data set [1], the maximum rate (Vmax) is 8.9 nmol/min and the kcat stood at 13.3 s⁻¹. In data set [2], the Vmax is given as 7.3 nmol/min and the turnover number (kcat) amounted to 21.0 s⁻¹.

On to `OC[C@H]1O[C@@H](O[C@H]2[C@H](O)[C@@H](O)C(O)O[C@@H]2CO)[C@H](O)[C@@H](O)[C@H]1O` (stereo partly drawn) [Lactose, lactose], for which the Vmax in data set [1] came to 7.2 nmol/min; in data set [2], 3.9 nmol/min. The values for the catalytic constant (kcat) in data set [1] and in data set [2] were 10.8 s⁻¹ and 11.2 s⁻¹, respectively.

B1: Photobacterium phosphoreum strain JT-ISH-467 β-galactoside-α2,3-sialyltransferase N2C0 (ISH467-N2C0), wild type, SEQ ID NO: 2, not containing His×6-Tag … (protein)
chain: T1 sequence (A5LHX0 with tags, fused parts or gaps F341A/E342A) with A318F, A319E
In general, Km refers to the concentration of substrate that gives half-maximal velocity. On to B1, for which the results for the Michaelis constant (Km) in data set [3] (setting [7]) and in data set [4] (setting [7]) were 8.4 mM and 0.72 mM, respectively.

B2: Photobacterium phosphoreum strain JT-ISH-467 β-galactoside-α2,3-sialyltransferase N2C0 variant E319A (ISH467-N2C0-E319A; Glu319 of SEQ ID NO: 2 replaced with … (protein)
chain: T1 sequence (A5LHX0 with tags, fused parts or gaps F341A/E342A) with A318F
Regarding B2, in data set [5], the Km is recorded as 22 mM, the Vmax amounted to 0.012 µmol/min and the kcat stood at 99.7 s⁻¹. For the same molecule, in data set [6], the Michaelis-Menten constant (Km) was 0.53 mM, the Vmax was found to be 3.2 nmol/min and the kcat turned out to be 106.3 s⁻¹.

B3: Photobacterium phosphoreum strain JT-ISH-467 β-galactoside-α2,3-sialyltransferase N2C0 variant F318AE319A (ISH467-N2C0-F318AE319A; Phe318 and Glu319 of SEQ ID … (protein)
chain: T1 sequence (A5LHX0 with tags, fused parts or gaps F341A/E342A)
For B3, the figures for the Km in data set [3] (setting [8]) and in data set [4] (setting [8]) were 85 mM and 1.59 mM, respectively.
